Paper PMC8928223, “The Collagen Receptor Discoidin Domain Receptor 1b Enhances Integrin β1-Mediated Cell Migration by Interacting With Talin and Promoting Rac1 Activation” (Frontiers in Cell and Developmental Biology, 2022)

Key:
[1] = target: T1, talin head domain (THD, a. a. 1-433), HIS-tagged (UniProt P26039 1-433); test: ELISA
T1 chain: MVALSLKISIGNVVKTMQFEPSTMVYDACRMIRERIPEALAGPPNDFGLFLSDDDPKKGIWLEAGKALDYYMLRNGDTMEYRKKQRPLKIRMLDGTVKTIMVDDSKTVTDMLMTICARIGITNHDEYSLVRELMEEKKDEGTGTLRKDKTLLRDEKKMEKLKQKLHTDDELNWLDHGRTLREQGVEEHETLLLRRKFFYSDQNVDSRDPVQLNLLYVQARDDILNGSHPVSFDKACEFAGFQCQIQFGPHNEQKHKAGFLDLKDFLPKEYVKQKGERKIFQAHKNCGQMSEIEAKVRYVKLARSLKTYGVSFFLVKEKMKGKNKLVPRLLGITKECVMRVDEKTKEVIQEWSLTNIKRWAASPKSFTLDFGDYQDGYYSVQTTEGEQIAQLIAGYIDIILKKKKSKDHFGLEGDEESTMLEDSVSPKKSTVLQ

[2] = target: T2, DDR1b-Turbo containing a Flag tag (human, UniProt Q08345-1 19-913); test: proximity labelling; BioID with turbo-Flag fused to DDR1 in HEK cells plated on collagen I (30 µg/ml) for 1-3 h with 50 µM biotin; streptavidin-agarose pull-down of the lysate and Western blot; settings: partners not purified
T2 construct: Discoidin domain receptor 1, isoform DDR1b, human, fused to the biotin ligase turbo-Flag as bait for BioID; construct described in Borza et al., 2021; source: HEK 293, stably transfected, in live cells and lysate

B1: DDR1b cytoplasmic domain (domain or fragment)
chain: WRLHWRRLLSKAERRVLEEELTVHLSVPGDTILINNRPGPREPPPYQEPRPRGNPPHSAPCVPNGSALLLSNPAYRLLLATYARPPRGPGPPTPAWAKPTNTQAYSGDYMEPEKPGAPLLPPPPQNSVPHYAEADIVTLQGVTGGNTYAVPALPPGAVGDGPPRVDFPRSRLRFKEKLGEGQFGEVHLCEVDSPQDLVSLDFPLNVRKGHPLLVAVKILRPDATKNARNDFLKEVKIMSRLKDPNIIRLLGVCVQDDPLCMITDYMENGDLNQFLSAHQLEDKAAEGAPGDGQAAQGPTISYPMLLHVAAQIASGMRYLATLNFVHRDLATRNCLVGENFTIKIADFGMSRNLYAGDYYRVQGRAVLPIRWMAWECILMGKFTTASDVWAFGVTLWEVLMLCRAQPFGQLTDEQVIENAGEFFRDQGRQVYLSRPPACPQGLYELMLRCWSRESEQRPPFSQLHRFLAEDALNTV
B1 was tested. Which Kd [1] did it give?
The Kd was 96.5 nM.

B2: DDR1a cytoplasmic domain (domain or fragment)
chain: WRLHWRRLLSKAERRVLEEELTVHLSVPGDTILINNRPGPREPPPYQEPRPRGNPPHSAPCVPNGSAYSGDYMEPEKPGAPLLPPPPQNSVPHYAEADIVTLQGVTGGNTYAVPALPPGAVGDGPPRVDFPRSRLRFKEKLGEGQFGEVHLCEVDSPQDLVSLDFPLNVRKGHPLLVAVKILRPDATKNARNDFLKEVKIMSRLKDPNIIRLLGVCVQDDPLCMITDYMENGDLNQFLSAHQLEDKAAEGAPGDGQAAQGPTISYPMLLHVAAQIASGMRYLATLNFVHRDLATRNCLVGENFTIKIADFGMSRNLYAGDYYRVQGRAVLPIRWMAWECILMGKFTTASDVWAFGVTLWEVLMLCRAQPFGQLTDEQVIENAGEFFRDQGRQVYLSRPPACPQGLYELMLRCWSRESEQRPPFSQLHRFLAEDALNTV
With B2 as the binder, how does the Kd [1] read?
Its Kd is 220 nM.

B3: Breakpoint cluster region protein (BCR) (natural protein, human (endogenous in HEK 293), UniProt P11274 1-1271, looked up)
chain: MVDPVGFAEAWKAQFPDSEPPRMELRSVGDIEQELERCKASIRRLEQEVNQERFRMIYLQTLLAKEKKSYDRQRWGFRRAAQAPDGASEPRASASRPQPAPADGADPPPAEEPEARPDGEGSPGKARPGTARRPGAAASGERDDRGPPASVAALRSNFERIRKGHGQPGADAEKPFYVNVEFHHERGLVKVNDKEVSDRISSLGSQAMQMERKKSQHGAGSSVGDASRPPYRGRSSESSCGVDGDYEDAELNPRFLKDNLIDANGGSRPPWPPLEYQPYQSIYVGGMMEGEGKGPLLRSQSTSEQEKRLTWPRRSYSPRSFEDCGGGYTPDCSSNENLTSSEEDFSSGQSSRVSPSPTTYRMFRDKSRSPSQNSQQSFDSSSPPTPQCHKRHRHCPVVVSEATIVGVRKTGQIWPNDGEGAFHGDADGSFGTPPGYGCAADRAEEQRRHQDGLPYIDDSPSSSPHLSSKGRGSRDALVSGALESTKASELDLEKGLEMRKWVLSGILASEETYLSHLEALLLPMKPLKAAATTSQPVLTSQQIETIFFKVPELYEIHKEFYDGLFPRVQQWSHQQRVGDLFQKLASQLGVYRAFVDNYGVAMEMAEKCCQANAQFAEISENLRARSNKDAKDPTTKNSLETLLYKPVDRVTRSTLVLHDLLKHTPASHPDHPLLQDALRISQNFLSSINEEITPRRQSMTVKKGEHRQLLKDSFMVELVEGARKLRHVFLFTDLLLCTKLKKQSGGKTQQYDCKWYIPLTDLSFQMVDELEAVPNIPLVPDEELDALKIKISQIKNDIQREKRANKGSKATERLKKKLSEQESLLLLMSPSMAFRVHSRNGKSYTFLISSDYERAEWRENIREQQKKCFRSFSLTSVELQMLTNSCVKLQTVHSIPLTINKEDDESPGLYGFLNVIVHSATGFKQSSNLYCTLEVDSFGYFVNKAKTRVYRDTAEPNWNEEFEIELEGSQTLRILCYEKCYNKTKIPKEDGESTDRLMGKGQVQLDPQALQDRDWQRTVIAMNGIEVKLSVKFNSREFSLKRMPSRKQTGVFGVKIAVVTKRERSKVPYIVRQCVEEIERRGMEEVGIYRVSGVATDIQALKAAFDVNNKDVSVMMSEMDVNAIAGTLKLYFRELPEPLFTDEFYPNFAEGIALSDPVAKESCMLNLLLSLPEANLLTFLFLLDHLKRVAEKEAVNKMSLHNLATVFGPTLLRPSEKESKLPANPSQPITMTDSWSLEVMSQVQVLLYFLQLEAIPAPDSKRQSILFSTEV
modifications: biotinylated by the turbo ligase in cells
notes: Breakpoint cluster region protein, in HEK 293 cells, detected with an anti-BCR antibody after streptavidin pull-down; source: endogenous, HEK 293 cells, in lysate
With B3 as the binder, how does the “fold increase in biotinylated BCR against DDR1a-expressing cells” value [2] read?
Its value is 2.92 ± 1.42 fold.
